This is an account of results in US20110262366A1 (published 2011).

Starred links: 1 amine or outer side, 2 acyl side, 3 side chain; linkers in the order of their positions; H or OH if unused. No end group written: not given here. NH(CH2)3(OCH2CH2)2O(CH2)3NH = C(CN[*:1])COCCOCCOCCCN[*:2]; Oregon Green = Oregon Green fluorescent reporter dye

The assay has as its target T1, NP-1/Fc (Neuropilin-1/Fc, R&D Systems).
T1 construct: Bought reagent; also called Npn-1
The assay is described as follows: competition with 250 pM ^125I-VEGF165 on NP-1/Fc-coated plates, 4° C., 2 h. The method, then: The next day all wells, even control wells lacking NP-1/Fc, were blocked 2 hrs with blocking buffer (1% BSA in D-PBS with 0.05% v/v Tween-20) then washed 4× with PBST (D-PBS/0.05% v/v Tween-20) before starting the assay. All points were derived from triplicate wells, and for each set of replicates in NP-1/Fc-coated wells, a companion set in the absence of the receptor was included. […] After addition of the appropriate solutions, microtiter plates were incubated at 4° C. for 2 hours. Following the incubation, plates were hand-washed 5 times with D-PBS containing 0.05% Tween-20 and 0.1% BSA. […] VEGF₁₆₅ (Cat. No. 100-20) was obtained from Peprotech.

T1 sequence (Q9QWJ9 22-855): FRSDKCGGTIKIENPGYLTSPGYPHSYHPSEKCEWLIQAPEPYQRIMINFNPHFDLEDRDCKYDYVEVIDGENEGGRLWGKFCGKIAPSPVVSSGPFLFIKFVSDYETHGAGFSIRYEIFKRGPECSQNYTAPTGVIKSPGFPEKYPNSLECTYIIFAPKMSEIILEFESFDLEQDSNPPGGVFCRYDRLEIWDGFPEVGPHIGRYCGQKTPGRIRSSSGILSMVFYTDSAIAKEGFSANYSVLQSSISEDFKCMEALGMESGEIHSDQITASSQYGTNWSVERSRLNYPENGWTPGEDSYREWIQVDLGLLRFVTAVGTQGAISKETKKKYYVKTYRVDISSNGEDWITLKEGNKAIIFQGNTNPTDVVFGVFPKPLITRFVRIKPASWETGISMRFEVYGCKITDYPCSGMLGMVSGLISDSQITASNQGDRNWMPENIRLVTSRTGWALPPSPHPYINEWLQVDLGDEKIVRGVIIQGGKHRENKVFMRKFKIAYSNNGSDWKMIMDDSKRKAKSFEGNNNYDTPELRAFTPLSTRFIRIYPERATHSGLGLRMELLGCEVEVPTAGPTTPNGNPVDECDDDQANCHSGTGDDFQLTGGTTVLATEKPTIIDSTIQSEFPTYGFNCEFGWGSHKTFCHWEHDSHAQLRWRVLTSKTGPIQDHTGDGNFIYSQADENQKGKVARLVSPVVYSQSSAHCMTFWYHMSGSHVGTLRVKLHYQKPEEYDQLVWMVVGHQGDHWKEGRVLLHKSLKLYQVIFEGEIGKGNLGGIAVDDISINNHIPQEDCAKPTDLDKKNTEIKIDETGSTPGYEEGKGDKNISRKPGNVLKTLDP

B1: Tetramer BRU-346: TKPPR-K(RPPKT)-K[K(RPPKT)TKPPR]-G-Z-OG (peptide)
chain: TKPPRKRPPKTKKRPPKTTKPPRG-{NH(CH2)3(OCH2CH2)2O(CH2)3NH-Oregon Green}
modifications: also: branched on lysine core: TKPPR units linked via C-terminal Arg to Lys side chains, letters 7-11 and 14-18 written reversed, not a linear chain
notes: also called Reverse Tetramer; tetrameric TKPPR linked to a different scaffold through the C-terminal amino acid
In general, IC50 refers to the point on the concentration scale where inhibition reaches its midpoint. A higher IC50 goes with weaker potency. Turning to B1, the IC50 is 8 µM.
